Consider one protein from paper PMC11955279, “The Molecular Mechanism of Interaction Between [sequence]3 and APETALA1 in Arabidopsis thaliana” (Plant Direct, 2025).

The data set concerns the molecule itself. The data set can be described thus: native gel or EMSA; chemiluminescent EMSA; purified protein bound to the biotin-labelled AP1 probe (single CArG cassette) at room temperature; dimer band on the DNA probe. Background: A gel shift assay detects complexes by their altered migration in electrophoresis.

B1: AtSEP3, wild type, recombinant GST-tagged protein (natural protein, Arabidopsis thaliana, UniProt O22456 2-251, looked up)
chain: GRGRVELKRIENKINRQVTFAKRRNGLLKKAYELSVLCDAEVALIIFSNRGKLYEFCSSSSMLRTLERYQKCNYGAPEPNVPSREALAVELSSQQEYLKLKERYDALQRTQRNLLGEDLGPLSTKELESLERQLDSSLKQIRALRTQFMLDQLNDLQSKERMLTETNKTLRLRLADGYQMPLQLNPNQEEVDHYGRHHHQQQQHSQAFFQPLECEPILQIGYQGQQDGMGAGPSVNNYMLGWLPYDTNSI
notes: also called wild-type SEP3 protein; source: E. coli BL-21 (DE3), pGEX-4T-3, purified (GST-tagged protein purification kit)
With B1, the binding result is recorded as “binds”.
